Data reported in US6630572.
Values joined by “and” are separate entries in the source; they are usually repeats but may differ in a detail not shown here. Identical values can stand only once.

Tests used:
[1] = biological target: high-affinity cell surface thrombin receptor on mouse embryo (ME) cells (mouse) (UniProt P30558); assay: competition with [^125I]-alpha-thrombin (1 nM) on quiescent ME cells
[2] = biological target: high-affinity cell surface thrombin receptor on mouse embryo (ME) cells (mouse) (UniProt P30558); assay: competition with 0.3 nM [^125I]-alpha-thrombin on ME cells; p508-530 from 8 to 4000 nM
[3] = biological target: high-affinity cell surface thrombin receptor on mouse embryo (ME) cells (mouse) (UniProt P30558); assay: Scatchard analysis of direct binding of [^125I]-labelled peptide to cells (data not shown)
[4] = biological target: high-affinity cell surface thrombin receptor on mouse embryo (ME) cells (mouse) (UniProt P30558); assay: competition with [^125I]-alpha-thrombin (1 nM) on quiescent ME cells; at 40 nM peptide
[5] = biological target: high-affinity cell surface thrombin receptor on mouse embryo (ME) cells (mouse) (UniProt P30558); assay: competition with [^125I]-alpha-thrombin (1 nM) for specific binding to quiescent ME cells, 23 C
[6] = biological target: high-affinity cell surface thrombin receptor on mouse embryo (ME) cells (mouse) (UniProt P30558); assay: cell-based or functional assay
[7] = biological target: high-affinity cell surface thrombin receptor on NIL cells (hamster fibroblasts) (hamster); assay: cell-based or functional assay
[8] = biological target: high-affinity cell surface thrombin receptor on mouse embryo (ME) cells (mouse) (UniProt P30558); assay: competition with [^125I]-alpha-thrombin (1 nM) on quiescent ME cells; at 800 nM peptide
[9] = biological target: high-affinity cell surface thrombin receptor on mouse embryo (ME) cells (mouse) (UniProt P30558); assay: competition with [^125I]-alpha-thrombin on ME cells; reference p508-530
[10] = biological target: high-affinity cell surface thrombin receptor on mouse embryo (ME) cells (mouse) (UniProt P30558); assay: competition with [^125I]-alpha-thrombin on ME cells

concentration at Maximal % Inhibition [1] | percent of specific [^125I]-alpha-thrombin binding competed [2] | Kd [3] | Maximal % Inhibition [4] | Concentration Required for 30% Inhibition [5] | concentration of p508-530 at which stimulation of ME cells was observed [6] | increase in incorporation of [^3H]-thymidine into DNA in ME cells, 0.1 uM p508-530 with 2 nM alpha-thrombin, against cultures treated with alpha-thrombin alone [6] | increase in incorporation of [^3H]-thymidine into DNA in ME cells, 0.1 uM p508-530 with 2 nM alpha-thrombin, against untreated cultures [6] | increase in DNA synthesis over controls in NIL cells in the presence of 25 ng/ml PMA [7] | Maximal % Inhibition [8] | fold higher concentration for 30% inhibition than p508-530 [9] | percent of [^125I]-alpha-thrombin binding competed [10] | Substance
40 nM | 30 to 70% | 60 nM | 78% | 6 nM | 12.5 nM and 100 nM | > 2 fold | 6 fold | 3.5 fold | – | – | – | synthetic peptide p508-530 (residues 508 to 530 of human prothrombin)
800 nM | – | – | – | 200 nM | – | – | – | – | 51% | 33 fold | 30 to 50% | synthetic peptide p519-530 (residues 519 to 530 of the B-chain region of human prothrombin)
